Experiment [1] has as its target T1, HA-HDM2 (human, recombinant, wild type) (human, UniProt Q00987 1-491).
T1 construct: human MDM2 (HDM2); also called HA-HDM2 (WT); HA-MDM2 (human); source: insect cell expression, purified as described previously [13]; not shown: HA, N-terminal, kept
The experiment is described as follows: pull-down; 500 ng FLAG-MDM4 with 500 ng HA-HDM2 or HA-HDM2L468A in NP40 buffer (20 mM Tris-HCl pH 8.0, 150 mM NaCl, 0.5% NP40); anti-FLAG M2 beads, 1 hour at room temperature; eluted with 3xFLAG peptide; blot for HA. The conditions noted are these: both partners purified.

The target in experiment [2] is T2, HA-HDM2L468A (human, recombinant) (human, UniProt Q00987 1-491, L468A).
T2 construct: human MDM2 (HDM2) with L468A; also called HA-HDM2LA; mutant HDM2 (HA-HDM2L468A); source: insect cell expression, purified as described previously [13]; not shown: HA, N-terminal, kept
T2 sequence (Q00987 whole entry L468A): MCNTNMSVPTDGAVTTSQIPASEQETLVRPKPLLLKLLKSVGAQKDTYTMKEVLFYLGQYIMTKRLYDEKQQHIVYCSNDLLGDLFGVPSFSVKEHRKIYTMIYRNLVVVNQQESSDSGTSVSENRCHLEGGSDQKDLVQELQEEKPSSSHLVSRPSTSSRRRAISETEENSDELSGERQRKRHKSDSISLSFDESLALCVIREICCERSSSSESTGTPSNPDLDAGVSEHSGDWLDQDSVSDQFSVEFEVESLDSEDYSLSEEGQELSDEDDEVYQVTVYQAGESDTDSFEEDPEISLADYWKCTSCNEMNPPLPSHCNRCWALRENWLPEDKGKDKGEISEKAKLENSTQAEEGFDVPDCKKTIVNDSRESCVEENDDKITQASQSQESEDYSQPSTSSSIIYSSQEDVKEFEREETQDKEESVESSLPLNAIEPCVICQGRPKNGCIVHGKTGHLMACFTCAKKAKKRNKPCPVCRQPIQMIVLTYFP
Described as above. To be noted: both partners purified.

T1 sequence (Q00987 whole entry): as the sequence (Q00987 whole entry L468A) above, with A468L counted along it

B1: human recombinant FLAG-MDM4 (natural protein, UniProt O15151 1-490, looked up)
chain: MTSFSTSAQCSTSDSACRISPGQINQVRPKLPLLKILHAAGAQGEMFTVKEVMHYLGQYIMVKQLYDQQEQHMVYCGGDLLGELLGRQSFSVKDPSPLYDMLRKNLVTLATATTDAAQTLALAQDHSMDIPSQDQLKQSAEESSTSRKRTTEDDIPTLPTSEHKCIHSREDEDLIENLAQDETSRLDLGFEEWDVAGLPWWFLGNLRSNYTPRSNGSTDLQTNQDVGTAIVSDTTDDLWFLNESVSEQLGVGIKVEAADTEQTSEEVGKVSDKKVIEVGKNDDLEDSKSLSDDTDVEVTSEDEWQCTECKKFNSPSKRYCFRCWALRKDWYSDCSKLTHSLSTSDITAIPEKENEGNDVPDCRRTISAPVVRPKDAYIKKENSKLFDPCNSVEFLDLAHSSESQETISSMGEQLDNLSEQRTDTENMEDCQNLLKPCSLCEKRPRDGNIIHGRTGHLVTCFHCARRLKKAGASCPICKKEIQLVIKVFIA
notes: human MDM4 (HDM4); also called FLAG-M4; HDM4; source: insect cell expression, purified as described previously [13]; not shown: FLAG, N-terminal, kept
Regarding B1, the binding result in experiment [1] and in experiment [2] was “binds” each time.

The record behind these values is publication PMC9119546, “MDM2 E3 ligase activity is essential for p53 regulation and cell cycle integrity” (PLoS Genetics, 2022).
